One experiment has as its system mobilized stem cells. Particulars: plerixafor 240 μg/kg; cited from earlier work.
The test system of experiment [1] is Hox11 mRNA expression in PBLs. The experiment can be described thus: Quantitative real-time PCR of Hox11 mRNA in peripheral blood lymphocytes (PBLs) of donors. Format: in vivo, human. Particulars: PBLs from G-CSF treated donors (mobilized, n=18) vs non-treated donors (non-mobilized, n=10); normalized to β-actin; p=0.000013; FIGS. 1B, 1D. The protocol:
(§1) All −70° C. frozen human peripheral blood cell samples used for this study were either from the Core Center of Excellence in Hematology (CCEH) at the Fred Hutchison Cancer Research Center or from Massachusetts General Hospital (MGH). These peripheral blood samples were obtained from donors not treated (non-mobilized samples) or treated with recombinant G-CSF (mobilized samples). Additional samples include peripheral blood samples from G-CSF treated donors that were further enriched for CD34+ stem cells. The non-mobilized, mobilized, and CD34+ stem cell enriched samples were obtained following human consent protocol 985.03-2 from Fred Hutchison Cancer Research Center. Additional fresh peripheral blood lymphocytes (PBLs) that were used to standardize the mRNA expressions of the frozen PBLs samples were obtained following human consent protocol MGH-2001P001379 from MGH, which involved the obligatory informed consent of all subjects.
(§2) Peripheral blood lymphocytes (PBLs) isolated from peripheral blood samples through leukapheresis were thawed in 37° C. water bath and washed with PBS+1% FBS twice. […] Quantitative real-time PCR was performed using Power SYBR Green reagent (Applied Biosystems, Foster City, Calif.) and the 7000 Real-Time PCR System.
(§3) Relative mRNA expression was calculated using a comparative count method (ddCT method). […]
(In general: Quantitative PCR measures a nucleic acid by following its amplification.)

Experiment [2] concerns CD34 mRNA expression in PBLs. The experiment can be described thus: Quantitative real-time PCR of CD34 mRNA in peripheral blood lymphocytes (PBLs) of donors. It is filed as in vivo, human. Particulars: PBLs from G-CSF treated donors (mobilized, n=18) vs non-treated donors (non-mobilized, n=10); normalized to β-actin; p=0.02; FIGS. 1A, 1C. The protocol:
as §1, §2, §3

Regarding `c1cc(CN2CCCNCCNCCCNCC2)ccc1CN1CCCNCCNCCCNCC1` [plerixafor], the “time at which the number of mobilized stem cells peaks after administration” value with mobilized stem cells is 4 to 10 h.

B1: granulocyte colony-stimulating factor (protein, UniProt P09919 31-207, looked up)
Granulocyte …: TPLGPASSLPQSFLLKCLEQVRKIQGDGAALQEKLVSECATYKLCHPEELVLLGHSLGIPWAPLSSCPSQALQLAGCLSQLHSGLFLYQGLLQALEGISPELGPTLDTLQLDVADFATTIWQQMEELGMAPALQPTQGAMPAFASAFQRRAGGVLVASHLQSFLEVSYRVLRHLAQP
notes: cytokine mobilization agent administered to donors to mobilize stem cells to peripheral blood
For B1, the “Hox11 mRNA expression (relative quantity)” value in experiment [1] is recorded as “exclusively found in PBLs isolated from mobilized peripheral blood samples”. The “CD34 mRNA expression (relative quantity)” value in experiment [2] is given as “exclusively found in PBLs isolated from mobilized peripheral blood samples”.

Source of the values: patent US20170106021A1, “COMPOSITIONS ENRICHED FOR HOX11+ STEM CELLS AND METHODS OF PREPARING THE SAME” (The General Hospital Corporation, priority 2014, published 2017).
